According to US20210380678A1 (SURROZEN OPERATING, published 2021):

T1: cynomolgus ASGR1 extracellular domain (cynoASGR1 ECD) (cynomolgus, UniProt P07306 62-291 (human entry))
T1 construct: Cloned with a His/Avi tag
T1 chain: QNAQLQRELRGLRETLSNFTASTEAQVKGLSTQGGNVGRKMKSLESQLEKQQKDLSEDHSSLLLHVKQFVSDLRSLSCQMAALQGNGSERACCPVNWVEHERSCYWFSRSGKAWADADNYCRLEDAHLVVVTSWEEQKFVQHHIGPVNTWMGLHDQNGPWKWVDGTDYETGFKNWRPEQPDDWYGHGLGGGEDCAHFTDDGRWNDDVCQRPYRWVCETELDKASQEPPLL

T2: human ASGR1 extracellular domain (hASGR1 ECD) (human, UniProt P07306 62-291, biotinylated (His-Avi tag))
T2 construct: His-Avi tag at the N-terminus, biotinylated for BLI; also called human ASGR1 ECD
T2 sequence: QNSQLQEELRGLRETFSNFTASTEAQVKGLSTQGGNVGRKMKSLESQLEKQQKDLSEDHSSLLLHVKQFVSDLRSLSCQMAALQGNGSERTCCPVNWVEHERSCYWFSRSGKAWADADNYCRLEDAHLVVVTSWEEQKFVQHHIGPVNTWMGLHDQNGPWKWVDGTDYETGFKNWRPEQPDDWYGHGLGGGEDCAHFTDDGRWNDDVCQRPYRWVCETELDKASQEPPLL

T3: human ZNRF3 extracellular domain (hZNRF3 ECD) (human, UniProt Q9ULT6 56-219, biotinylated (His-Avi tag))
T3 construct: Expressed with a His-Avi tag at the N-terminus and biotinylated; also called ZRNF3
T3 sequence: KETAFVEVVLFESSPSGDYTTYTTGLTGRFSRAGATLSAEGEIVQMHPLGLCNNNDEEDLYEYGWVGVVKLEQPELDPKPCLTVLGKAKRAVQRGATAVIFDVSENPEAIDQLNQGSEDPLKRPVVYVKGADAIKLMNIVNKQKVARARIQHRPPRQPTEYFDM


Assays:
[1] = target: T1, cynomolgus ASGR1 extracellular domain …; assay: hybridoma screening on recombinant ECD
[2] = target: T2, human ASGR1 extracellular domain …; assay: hybridoma screening on recombinant ECD
[3] = target: T3, human ZNRF3 extracellular domain …; assay: BLI (Octet), biotinylated antigen on SA sensor, 1:1 fit
Method: (§1) Binding characterization of recombinant Fabs or IgG' s was carried out using Bio-Layer Interferometry (BLI) using the Octet Red 96 platform (PALL ForteBio, Fremont, Calif.) with streptavidin (SA) coated biosensors (PALL ForteBio,). […] Following immobilization, sensors were dipped into samples containing test molecules at seven concentrations. Values for KD were determined by fitting the resulting data with a 1:1 binding model.

[4] = target: T3, human ZNRF3 extracellular domain …; assay: BLI (Octet) KD grade: ** = 1 uM > KD >= 100 nM
Method: as §1

Row | binding result [1] | binding result [2] | Kd [3] [nM] | KD [4] [nM] | Binder
1 | binds | binds | – | – | LP1-6H3 (antibody, V domains shown, Hybridoma antibody as screened) VH: QAYLQQSGAELVRPGASVKMSCKASGYTFSRFDMHWVKQTPRQGLEWIGVIYPGNGDTSYNQKFRDKASLTVDKSSSTAYMQLSSLTSEDSAVYFCASSYYGNPWGQGTTLTVSS VL: not shown
2 | binds | binds | – | – | LP1-1F8 (antibody, V domains shown, Hybridoma antibody as screened) VH: EVKLVESGGGLVKPGGSLKLSCAASGFTFSTYTMSWVRQTPAKRLEWVATISSIGVNTYYPDSVKGRFTISRDNARNTLYLQVSSLRSEDTAMYYCARHVDYYDGISFDYWGQGTTLTVSS VL: DIVMSQSPSSLAVSAGEKVTMSCKSSQSLFNSRTRKNYLAWYQQKPGQSPKLLIYWASTRESGVPDRFTGSGSGTDFTLTISSVQAEDLAVYYCKQSYYLLTFGAGTKLELK
3 | binds | binds | – | – | LP1-2I22 (antibody, V domains shown, Hybridoma antibody as screened) VH: EVQLQQSGPELVKPGASVKISCKASGYSFTGYFMNWVKQSHGKSLEWIGRFNPFNGQTFYNQEFKGKATLTVDKSSDTAHMELRSLTSEDSAVYYCARRGRYDVYYALDYWGQGTSVTVSS VL: DIQMTQSPASLSASVGETVIITCRASENIYSNLAWYQQKQGKSPQLLVYGATNLADGVTSRFSGSGSGTQFSLKIDSLQSEDFGSYYCQHFWGTTWTFGGGTKLEIK
4 | binds | binds | – | – | LP1-2I13 (antibody, V domains shown, Hybridoma antibody as screened) VH: EVQLVESGGGLVKPGGSRKLSCAASGFTFSDYGMHWVRQAPEKGLEWVAYISSGSSTIYYADTVKGRFTISRDNAKNTLFLQMTSLRSEDTAMYYCSRKGGFGDYEKSYAMDYWGQGTSVTVSS VL: DIQMTQSPASLSASVGETVTITCRASENIYSYLVWYQQKQGKSPQLLVYNAKTLAEGVPSRFSGSGSGTQFSLKINSLQPEDFGSYYCQHHYGTWTFGGGIKLEIK
5 | binds | binds | – | – | LP1-9M16 (antibody, V domains shown, Hybridoma antibody as screened) VH: EVQLQQSGPELVKPGASVKMSCKASGYTFTDYYMNWVKQSHGKSLEWIGRVNPNNGGSNYNQKFKGKATLTVDKSLSTAYMQLNSLTSEDSAVYYCASRNFDVWGAGTTVTVSS VL: DIKMTQSPSSMYASLGERVTITCKASQDINSYLSWFQQKPGKSPKTLIYRANRLADGVPSRFSGSGSGQDYSLTISNLEYEDMGIYYCLQYDEFPLTFGAGTKLELK
6 | binds | binds | – | – | LP1-2E12 (antibody, V domains shown, Hybridoma antibody as screened) VH: DVQLQESGPGLVKPSQSLSLTCSVTGYSITSGYYWNWIRQFPGNKLEWMGSIGYDDTNHYNPSLKNRISITRDTSKNQFFLKLNSVTTEDTATYYCAGDYPFAFWGQGTLVTVSA VL: DVVVTQTPLSLPVSFGDRVSISCRSSQSLANSYGNTYLSWYLHKPGQSPQLLIYGISNRFSGVPDRFSGSGSGTDFTLKISTIKPEDLGMYYCLQGTHQPLTFGAGTKLELK

Second part, the binder before the results:

Row | Binder | binding result [1] | binding result [2] | Kd [3] [nM] | KD [4] [nM]
7 | LP1-3E20 (antibody, V domains shown, Hybridoma antibody as screened) VH: QVQLQQSGAELAKPGASVKMSCKASGYTFTSYWIHWVKQRPGQGLEWIGYINPSSGYAEYNQKFKVRATLTADKSSSTAYMQLSSLTSEDSAVYYCARESYYSFDYTMDYWGQGTSVTVSS VL: DIKMTQSPSSMYASLGERVTITCKASQDINSYLSWFQQKPGKSPKTLIYRANRLVDGVPSRFSGSGSGQDYSLTISSLEYEDMGIYYCLQYDDLWTFGGGTKLEIK | binds | binds | – | –
8 | LP1-7I20 (antibody, V domains shown, Hybridoma antibody as screened) VH: EVKLVESGGGLVQPGGSLSLSCAASGFTFTDYYMSWVRQPPGKALEWLALIRNKANGYTTEYSASVKGRFTISRDNSQSILYLQMNALRAEDSATYYCAVTYGAYWGQGTLVTVSA VL: DIQMTQSPASLSASVGETVTITCRTSENIYSYLAWYQQKQGKSPQLLVYNAKTLAKGVPSRFSGSGSGTQFSLKINGLQPEDFGNYYCQHHYGTPYTFGGGTKVEIK | binds | binds | – | –
9 | LP1-8M24 (antibody, V domains shown, Hybridoma antibody as screened) VH: QVQLQQSGAELARPGASVKLSCKASGYTFTNYGINWVKQRTGQGLEWIGEIFPRSDNTFYNEKFKGKATLTADKSSTTAYMELRSLTSEDSAVYFCARKGRDYGTSHYFDYWGQGTTLTVSS VL: DIQMTQSPASLSVSVGETVTITCRISENIYSNLAWYQQKQGKSPHLLVYAAINLADGVPSRFSGSGSGTQFSLKINSLQSEDFGSYYCQHFWGTPFTFGSGTKLEIK | binds | binds | – | –
10 | LP1-1P13 (antibody, V domains shown, Hybridoma antibody as screened) VH: EVQLQQSGPELVKPGASVKISCKASGYSFTDYFMNWVKQSHGKSLEWIGRFNPFNGQTFYNQEFKGKATLTVDKSSSTAHMELRSLTSEDSAVYYCARRGRYDVYYVLDYWGQGTSVTVSS VL: DIQMTQSPASLSASVGQTVIITCRTSENIYSNLAWYQQKQGKSPQLLVYAATNLADGVPSRFSGSGSGTQYYLKINSLQSEDFGSYYCQHFWGSTWTFGGGTKLDIK | binds | binds | – | –
11 | LP1-7B13 (antibody, V domains shown, Hybridoma antibody as screened) VH: EVQLQQSGPEVVKPGASVKMSCKTSGFTFTDYYMNWVKQGHGKSLEWIGRVNPSNDDTRYNQKFKGKATLTVDKSLSTAYMQLNSLTSEDSAVYYCTRWFYFDYWGQGTTLTVSS VL: DIVLTQSPATLSVTPGDRVSLSCRASQSISNYLHWYQQKSHESPRLLIKFASQSISGIPSRFSGSGSGTDFTLTINSVETEDFGMYFCQQSNSWPLTFGAGTKLELK | binds | binds | – | –
12 | 028S-B04 (antibody, V domains shown) VH: QVQLVQSGAEVKKPGASVKVSCKASGYTFRRYPMHWVRQAPGQGLEWMGIINPSGGSTSYAQKFQGRVTMTRDTSTSTVYMELSSLRSEDTAVYYCARDKVGAIDYWGQGTLVTVSS VL: DIQMTQSPSSLSASVGDRVTITCRASQGISNYLAWYQQKPGKAPKLLIYAASSLQRGVPSRFSGSGSGTDFTLTISSLQPEDFATYYCQQSYSTPLTFGGGTKVEIK | – | – | 256 | 100 to 1000
13 | LP1-1N15 (antibody, V domains shown, Hybridoma antibody as screened) VH: EVQLQQSGPELVKPGASVKMSCKASGYTFTDYYMNWVKQSHGESLEWIGRVIPSNGGTNYNQKFKGKATLTVDKSLTTAYMQLNSLTSEDSAVYFCARGMDYWGPGTSVTVSS VL: DIKMTQSPSSMYASLGERVTITCKASQDINSHLSWFQQKPGKSPKTLIIRANRLVDGVPSRFSGSGSGQDYSLTISSPEYEEMGIYYCLQYDEFPFTFGGGTKLEIK | binds | binds | – | –
14 | LP1-1P5 (antibody, V domains shown, Hybridoma antibody as screened) VH: QVQLQQSGPELVRPGTSVKISCKASGYTFLTYWMNWVKQRPGQGLEWIGQIFPATGITYYSEMFKDKATLTEDTSSTTAYMQLSSLTSEATAVYFCARRRAYHSNFFDYWGQGTTLTVSS VL: DIVMTQSQKFMSTSVGDRVSVTCKASQNVGTNVAWYQQKPGQSPKALIYSASYRYSGVPDRFTGSGSGTDFTLTISNVQSEDLAEYFCQQYNSYPLTFGAGTKLELK | binds | binds | – | –
15 | LP1-3A24 (antibody, V domains shown, Hybridoma antibody as screened) VH: EVQLQQSGPELVKPGASVKMSCKASGYTFTDYYINWVRQSHGKSLEWIGRVIPSNGGSNYNQKFKGKATLTVDKSLSTAYMHLNSLTSEDSAVYYCATQLGRWGQGTLVTVSA VL: DIVMTQSQKFMSTSVGDRVSVTCKASQNVGSNVAWFQQKPGQSPKALIYSSSYRYSGVPDRFTGSGSGTDFTLTITNVQSEDLAEYFCQQYNSFPLTFGAGTKLELK | binds | binds | – | –
16 | LP1-9C3 (antibody, V domains shown, Hybridoma antibody as screened) VH: QVTLKESGPGILQPSQTLSLTCSFSGFSLSTSYMGVSWIRKPSGKGLEWLAHIFWDDDKRYNPSLKSRLTISKDTSSNQVFLMITSVETADTATYYCGGPYYPFTYWGQGTLVTVSA VL: DVVVTQTPLSLPVSFGDQVSISCRSSQSLANSYGNTYLSWYLHKPGQSPQLLIYGISNRFSGVPDRFSGSGSGTDFTLKISTIKPEDLGIYYCLQATHQPWTFGGGTKLEIK | binds | binds | – | –
17 | LP1-10C22 (antibody, V domains shown, Hybridoma antibody as screened) VH: EVQLVESGGDLVKPGGSLKLSCAASGFTFSSYGMSWVRQTPDKRLEWVASISSGGSYTYYPDSVKGRFTISRDNAQNTLYLQMSSLKSEDTAMYYCVRHEEYGKSGFAYWGQGTLITVSA VL: DVLMTQTPLSLPVSLGDQASISCRSSQGIVHSNGNIYLEWYLQKPGQSPKLLIYKVSNRFSGVPDRFSGSGSGTDFTLKISRVEAEDLGVYYCFQGSHVPPTFGGGTKLEIK | binds | binds | – | –
